*1 amine or outer side, *2 acyl side, *3 side chain or, on linkers, in order; H or OH if unused. Bridges are numbered along the chain shown (N, C = ends). Where no end group is shown, it is not given here. [ ]: non-standard residue; d: D form. TATA = O=C(CC[*:1])N1CN(C(=O)CC[*:2])CN(C(=O)CC[*:3])C1; 1Nal = N[C@@H](Cc1cccc2ccccc12)C(=O)O; 2Nal = N[C@@H](Cc1ccc2ccccc2c1)C(=O)O; Hyp = O=C(O)[C@@H]1C[C@@H](O)CN1; dCya = N[C@H](CS(=O)(=O)O)C(=O)O; hArg = N=C(N)NCCCC[C@H](N)C(=O)O; Agb = N=C(N)NCC[C@H](N)C(=O)O; Pip = O=C(O)[C@@H]1CCCCN1; Aze = O=C(O)[C@@H]1CCN1; βAla = NCCC(=O)O; Sar = CNCC(=O)O
T1: Human Nectin-4 (residues Gly32-Ser349) with C-terminal FLAG tag, biotinylated (human, UniProt Q96NY8 32-349, randomly biotinylated with EZ-Link Sulfo-NHS-LC-LC-Biotin)
T1 construct: range 32-349; Captured through biotin on a streptavidin CM5 chip in the SPR assay; also called PVRL4; not shown: C-terminal FLAG tag
T1 sequence (looked up): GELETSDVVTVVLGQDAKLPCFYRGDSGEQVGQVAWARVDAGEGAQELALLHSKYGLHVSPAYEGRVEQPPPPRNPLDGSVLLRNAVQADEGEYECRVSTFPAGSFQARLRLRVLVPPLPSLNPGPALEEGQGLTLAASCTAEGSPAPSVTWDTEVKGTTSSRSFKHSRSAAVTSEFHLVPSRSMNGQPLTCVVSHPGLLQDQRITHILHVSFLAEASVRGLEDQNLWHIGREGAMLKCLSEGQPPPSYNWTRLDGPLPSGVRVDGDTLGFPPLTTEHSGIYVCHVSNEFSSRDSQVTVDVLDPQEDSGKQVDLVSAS

T2: human Nectin-4 (human, UniProt Q96NY8 32-349)
T2 construct: a Gly32-Ser349 FLAG construct is described only under the SPR assay; also called PVRL4
T2 sequence (looked up): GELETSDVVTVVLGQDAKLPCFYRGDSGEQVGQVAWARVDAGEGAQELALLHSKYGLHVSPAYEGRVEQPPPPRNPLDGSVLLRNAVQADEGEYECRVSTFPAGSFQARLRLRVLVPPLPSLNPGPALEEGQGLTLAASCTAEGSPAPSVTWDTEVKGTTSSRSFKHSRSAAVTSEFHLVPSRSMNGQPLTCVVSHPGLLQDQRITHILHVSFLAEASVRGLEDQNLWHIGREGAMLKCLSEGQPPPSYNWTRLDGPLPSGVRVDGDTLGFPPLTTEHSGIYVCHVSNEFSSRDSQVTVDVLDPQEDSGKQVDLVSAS


These binders were tested against T1, Human Nectin-4 (residues Gly32-Ser349) … (assay: SPR (Biacore), biotinylated human Nectin-4 on streptavidin chip).
Experimental: Biacore experiments were performed to determine kₐ (M⁻¹s⁻¹), kd (s⁻¹), KD (nM) values of monomeric peptides binding to human Necin-4 protein (obtained from Charles River).
For analysis of peptide binding, a Biacore 3000 instrument was used utilising a CM5 chip (GE Healthcare). Streptavidin was immobilized on the chip using standard amine-coupling chemistry at 25° C. with HBS-N (10 mM HEPES, 0.15 M NaCl, pH 7.4) as the running buffer. Briefly, the carboxymethyl dextran surface was activated with a 7 minute injection of a 1:1 ratio of 0.4 M 1-ethyl-3-(3-dimethylaminopropyl) carbodiimide hydrochloride (EDC)/0.1 M N-hydroxy succinimide (NHS) at a flow rate of 10 μl/min. For capture of streptavidin, the protein was diluted to 0.2 mg/ml in 10 mM sodium acetate (pH 4.5) and captured by injecting 120 μl of streptavidin onto the activated chip surface. Residual activated groups were blocked with a 7 minute injection of 1 M ethanolamine (pH 8.5) and biotinylated Nectin-4 captured to a level of 1,200-1,800 RU. Buffer was changed to PBS/0.05% Tween 20 and a dilution series of the peptides was prepared in this buffer with a final DMSO concentration of 0.5%. The top peptide concentration was 100 nM with 6 further 2-fold dilutions. The SPR analysis was run at 25° C. at a flow rate of 50 μl/min with 60 seconds association and dissociation between 400 and 1,200 seconds depending upon the individual peptide. Data were corrected for DMSO excluded volume effects. All data were double-referenced for blank injections and reference surface using standard processing procedures and data processing and kinetic fitting were performed using Scrubber software, version 2.0c (BioLogic Software). Data were fitted using simple 1:1 binding model allowing for mass transport effects where appropriate.

| Binder | Kd [nM] |
| --- | --- |
| Ac-CVTTSYDCWVTLGHCSRF (linker 1-8-15 via TATA, Bicyclic peptide cyclised with TATA) | 1380 |
| Ac-CPFGCMKNWSWPIWC (linker 1-5-15 via TATA, Bicyclic peptide cyclised with TATA; also called 80-09-02-N008) [BCY7390] | 40.3 |
| {Ac-βAla}-[Sar][Sar][Sar][Sar][Sar]CP[1Nal][dD]CM[hArg]DWSTPIWC (linker 6-10-20 via TATA, Bicyclic peptide cyclised with TATA) [BCY8123] | 2.66 |
| Ac-QKWCAPLSDYWCNRIC (linker 4-12-16 via TATA, Bicyclic peptide cyclised with TATA) [BCY7392] | 35.7 |
| ACPFGCMKNWSWPIWCA (linker 2-6-16 via TATA, Bicyclic peptide cyclised with TATA; also called 80-09-02-N002) [BCY428] | 334 |
| Ac-CPFGCMKNWSWPIWCTNK (linker 1-5-15 via TATA, Bicyclic peptide cyclised with TATA; also called 80-09-02-T01-N011) | 59.8 |
| {Ac-βAla}-[Sar][Sar][Sar][Sar][Sar]CP[1Nal][dD]CM[hArg]DWSTP[Hyp]WC (linker 6-10-20 via TATA, Bicyclic peptide cyclised with TATA) [BCY8122] | 0.89 |
| Ac-CP[1Nal][dD]CMPDWSTP[Hyp]WC (linker 1-5-15 via TATA, Bicyclic peptide cyclised with TATA) [BCY8182] | 0.96 |

Further lines, results first:

| Kd [nM] | Binder |
| --- | --- |
| 1.84 | Ac-CP[1Nal][dD]CM[hArg]DWSTPIWC (linker 1-5-15 via TATA, Bicyclic peptide cyclised with TATA) [BCY8127] |
| 44.5 | Ac-CPF[dD]CL[hArg]NWSTPPWC (linker 1-5-15 via TATA, Bicyclic peptide cyclised with TATA) [BCY8038] |
| 47 | CPF[dD]CM[hArg]NWSTPIWC (linker 1-5-15 via TATA, Bicyclic peptide cyclised with TATA) [BCY7793] |
| 7.32 | Ac-CP[1Nal][dD]CL[hArg]DWSTPIWC (linker 1-5-15 via TATA, Bicyclic peptide cyclised with TATA) [BCY8211] |
| 1.71 | Ac-CP[1Nal][dD]CM[hArg]NWSTPIWC (linker 1-5-15 via TATA, Bicyclic peptide cyclised with TATA) [BCY8030] |
| 14.9 | {Ac-βAla}-[Sar][Sar][Sar][Sar][Sar]CPF[dA]CM[hArg]NWSWPIWC (linker 6-10-20 via TATA, Bicyclic peptide cyclised with TATA) [BCY7559] |
| 0.53 | {Ac-βAla}-[Sar][Sar][Sar][Sar][Sar]CP[1Nal][dD]CM[hArg]HWSTP[Hyp]WC (linker 6-10-20 via TATA, Bicyclic peptide cyclised with TATA) [BCY8121] |
| 0.69 | Ac-CP[1Nal][dD]CM[hArg]NWSTP[Hyp]WC (linker 1-5-15 via TATA, Bicyclic peptide cyclised with TATA) [BCY8124] |
| 0.67 | {Ac-βAla}-[Sar][Sar][Sar][Sar][Sar]CP[1Nal][dD]CM[hArg]NWSTP[Hyp]WC (linker 6-10-20 via TATA, Bicyclic peptide cyclised with TATA) [BCY8120] |
| 0.87 | Ac-CP[1Nal][dR]CM[hArg]HWSTP[Hyp]WC (linker 1-5-15 via TATA, Bicyclic peptide cyclised with TATA) [BCY8129] |
| 2.42 | Ac-CP[1Nal][dD]CL[hArg]DWSTP[Hyp]WC (linker 1-5-15 via TATA, Bicyclic peptide cyclised with TATA) [BCY8212] |
| 1.95 | Ac-CP[1Nal][dR]CL[hArg]DWSTP[Hyp]WC (linker 1-5-15 via TATA, Bicyclic peptide cyclised with TATA) [BCY8213] |
| 0.52 | Ac-CP[1Nal][dD]CM[hArg]HWSTP[Hyp]WC (linker 1-5-15 via TATA, Bicyclic peptide cyclised with TATA) [BCY8125] |
| 0.54 | Ac-CP[1Nal][dR]CL[hArg]HWSTP[Hyp]WC (linker 1-5-15 via TATA, Bicyclic peptide cyclised with TATA) [BCY8214] |
| 1.06 | Ac-CP[1Nal][dR]CM[hArg]NWSTP[Hyp]WC (linker 1-5-15 via TATA, Bicyclic peptide cyclised with TATA) [BCY8128] |
| 1.81 | Ac-CP[1Nal][dR]CM[Agb]DWSTP[Hyp]WC (linker 1-5-15 via TATA, Bicyclic peptide cyclised with TATA) [BCY8192] |
| 3.88 | [βAla][Sar][Sar][Sar][Sar][Sar][Sar][Sar][Sar][Sar][Sar]CP[1Nal][dD]CMKDWSTP[Hyp]WC (linker 12-16-26 via TATA, Bicyclic peptide cyclised with TATA) [BCY8238] |
| 0.56 | Ac-CP[1Nal][dR]CM[hArg]DWSTP[Hyp]WC (linker 1-5-15 via TATA, Bicyclic peptide cyclised with TATA) [BCY8184] |
| 0.61 | Ac-CP[1Nal][dCya]CM[hArg]DWSTP[Hyp]WC (linker 1-5-15 via TATA, Bicyclic peptide cyclised with TATA) [BCY8163] |

Each binder was assayed against T2, human Nectin-4 (assay: FP competition, tracer SEQ ID NO 217).
Experimental: Peptides were diluted to an appropriate concentration in assay buffer as described in the direct binding assay with a maximum of 5% DMSO, then serially diluted 1 in 2. […] Measurements were conducted as for the direct binding assay, however the gain was determined prior to the first measurement. Data analysis was in Systat Sigmaplot version 12.0 where the mP values were fit to a user defined cubic equation to generate a Ki value: […]

| Binder | Ki [nM] |
| --- | --- |
| ACPFGCMK[dA]WSWPIWCTNK (linker 2-6-16 via TATA) [BCY7360] | 68.2 |
| XACPFGCMKNWSWPIWCA (N-terminal X = 2-Nal; TATA on 3 Cys, also called 80-09-02-N010) [BCY7421] | 28.5 |
| Ac-CVTTSYDCWVTLGHCSRF (linker 1-8-15 via TATA) | 232 |
| Ac-CPFGCMKNWSWPIWCTNK (linker 1-5-15 via TATA, also called 80-09-02-T01-N011) | 13.3 |
| AC[dA]FGCMKNWSWPIWCTNK (linker 2-6-16 via TATA) [BCY7370] | 144 |
| XACPFGCMKNWSWPIWCA (N-terminal X = 1-Nal; TATA on 3 Cys, also called 80-09-02-N009) [BCY7420] | 63.6 |
| ACPF[dA]CMKNWSWPIWCTNK (linker 2-6-16 via TATA) [BCY7350] | 10 |
| ACPFGCXKNWSWPIWCTNK (core CPFGC(Nle)KNWSWPIWC (printed (NIe)); TATA on 3 Cys, also called 80-09-02-T01-N041) [BCY7372] | 72.6 |
| ACPFGCM[dA]NWSWPIWCTNK (linker 2-6-16 via TATA) [BCY7359] | 160 |
| ACAFGCMKNWSWPIWCTNK (linker 2-6-16 via TATA, also called 80-09-02-T01-N022) [BCY7352] | 132 |
| ACPFACMKNWSWPIWCTNK (linker 2-6-16 via TATA, also called 80-09-02-T01-N020) [BCY7354] | 884 |
| ACPFGCMANWSWPIWCTNK (linker 2-6-16 via TATA, also called 80-09-02-T01-N026) [BCY7356] | 43.4 |
| ACPFGCMKNWSWPIWC[dA]NK (linker 2-6-16 via TATA) [BCY7367] | 26.3 |
| ACPFGCMKAWSWPIWCTNK (linker 2-6-16 via TATA, also called 80-09-02-T01-N027) [BCY7357] | 45.2 |
| ACPFGCMKNWSWP[dA]WCTNK (linker 2-6-16 via TATA) [BCY7365] | 282 |

Next, values leading:

| Ki [nM] | Binder |
| --- | --- |
| 224 | XACPFGCMKNWSWPIWCA (N-terminal X = 44BPA (4,4-biphenylalanine); TATA on 3 Cys, also called 80-09-02-N012) [BCY7521] |
| 180 | Ac-CPFGCMKNWS[1Nal]PIWC (linker 1-5-15 via TATA) [BCY7591] |
| 37.4 | Ac-CPFGCMKNWS[2Nal]PIWC (linker 1-5-15 via TATA) [BCY7592] |
| 69 | Q[dK]WCAPLSDYWCNRICA (linker 4-12-16 via TATA) [BCY7426] |
| 73 | Ac-CPFGCMKNWSW[Aze]IWC (linker 1-5-15 via TATA) [BCY7594] |
| 219 | Ac-CPFGCMKNWSW[Pip]IWC (linker 1-5-15 via TATA) [BCY7595] |

Reference: patent US20210269480A1 (published 2021)
